# Source: PMC2805098 (Biochemistry, 2009)
# Numbering of substitutions follows the chain as printed. Like-named read-outs stand apart in the source and are kept apart here.
# B1: Phe223Leu (protein, UniProt P0AEZ1 1-296, looked up, variant F223L)
# 5,10-methylenetetrahydrofolate …: MSFFHASQRDALNQSLAEVQGQINVSFEFFPPRTSEMEQTLWNSIDRLSSLKPKFVSVTYGANSGERDRTHSIIKGIKDRTGLEAAPHLTCIDATPDELRTIARDYWNNGIRHIVALRGDLPPGSGKPEMYASDLVTLLKEVADFDISVAAYPEVHPEAKSAQADLLNLKRKVDAGANRAITQFFFDVESYLRFRDRCVSAGIDVEIIPGILPVSNFKQAKKLADMTNVRIPAWMAQMFDGLDDDAETRKLVGANIAMDMVKILSREGVKDFHFYTLNRAEMSYAICHTLGVRPGL
# B2: Wild-type: wild-type histidine-tagged E. coli methylenetetrahydrofolate reductase (protein, UniProt P0AEZ1 1-296, looked up)
# 5,10-methylenetetrahydrofolate …: B1 5,10-methylenetetrahydrofolate … with L223F
# modifications: histidine tag
# B3: Phe223Ala: Phe223Ala mutant of histidine-tagged E. coli methylenetetrahydrofolate reductase (protein, UniProt P0AEZ1 1-296, looked up, variant F223A)
# 5,10-methylenetetrahydrofolate …: B1 5,10-methylenetetrahydrofolate … with L223A
# modifications: histidine tag
# Legend:
# [1] = Midpoint potential determination, xanthine/xanthine oxidase reducing system; assay type: physicochemical, Escherichia coli; conditions: two-electron, pH 7.2, 25 °C, reference dye phenosafranine
# [2] = pH 7.2, 25 °C; cited from earlier work
Molecule,Midpoint Potential [1] [mV],Midpoint Potential [2] [mV]
B1,−240 ± 3,–
B2,–,−237 ± 4
B3,−236 ± 3,–
